In article PMC12990809:

Key:
Test in all cases: pulldown
Conditions in all cases: 20 nM protein, 1.5 uM RNA pool; 20 mM HEPES pH 7.8, 70 mM KCl, 10 mM NaCl, 10% glycerol, 2 mM DTT, 0.1 ug/uL BSA; 30 min, 4 C
[1] = target: T1, mei2 (Schizosaccharomyces pombe) (UniProt P08965)
T1 sequence: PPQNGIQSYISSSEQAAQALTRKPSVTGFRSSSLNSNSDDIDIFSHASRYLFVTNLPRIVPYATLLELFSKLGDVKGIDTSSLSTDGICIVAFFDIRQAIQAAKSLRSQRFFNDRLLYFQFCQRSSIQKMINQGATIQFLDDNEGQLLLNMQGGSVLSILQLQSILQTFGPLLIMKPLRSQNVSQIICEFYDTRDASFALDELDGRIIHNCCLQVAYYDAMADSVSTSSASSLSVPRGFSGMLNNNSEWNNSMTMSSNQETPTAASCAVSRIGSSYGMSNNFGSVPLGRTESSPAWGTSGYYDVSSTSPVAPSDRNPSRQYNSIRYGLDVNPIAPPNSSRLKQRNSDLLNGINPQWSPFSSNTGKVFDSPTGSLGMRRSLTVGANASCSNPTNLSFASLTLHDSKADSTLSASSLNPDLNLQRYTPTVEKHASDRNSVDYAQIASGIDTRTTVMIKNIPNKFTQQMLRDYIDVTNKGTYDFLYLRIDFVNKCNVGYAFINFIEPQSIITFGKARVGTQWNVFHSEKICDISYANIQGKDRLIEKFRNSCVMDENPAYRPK

[2] = test system: T2, PK27602.1 (Cannabis sativa)
T2 sequence: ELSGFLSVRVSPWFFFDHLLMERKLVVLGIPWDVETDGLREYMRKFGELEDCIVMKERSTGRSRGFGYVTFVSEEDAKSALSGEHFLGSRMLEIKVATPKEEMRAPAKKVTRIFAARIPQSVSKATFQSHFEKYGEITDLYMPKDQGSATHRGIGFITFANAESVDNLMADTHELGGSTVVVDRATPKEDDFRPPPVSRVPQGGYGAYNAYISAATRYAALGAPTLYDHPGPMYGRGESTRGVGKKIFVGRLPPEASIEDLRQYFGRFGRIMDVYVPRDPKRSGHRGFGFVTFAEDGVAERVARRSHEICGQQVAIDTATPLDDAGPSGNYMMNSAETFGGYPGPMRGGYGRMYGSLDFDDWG

[3] = target: T3, SRSF3 (Tetraodon nigroviridis) (UniProt H3C295)
T3 sequence: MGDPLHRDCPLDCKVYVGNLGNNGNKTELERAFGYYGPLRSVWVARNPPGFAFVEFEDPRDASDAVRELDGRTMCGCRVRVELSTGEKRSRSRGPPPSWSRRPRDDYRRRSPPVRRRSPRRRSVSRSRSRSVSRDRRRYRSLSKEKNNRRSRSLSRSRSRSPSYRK

[4] = target: T4, nop12 (Schizosaccharomyces pombe) (UniProt O13741)
T4 sequence: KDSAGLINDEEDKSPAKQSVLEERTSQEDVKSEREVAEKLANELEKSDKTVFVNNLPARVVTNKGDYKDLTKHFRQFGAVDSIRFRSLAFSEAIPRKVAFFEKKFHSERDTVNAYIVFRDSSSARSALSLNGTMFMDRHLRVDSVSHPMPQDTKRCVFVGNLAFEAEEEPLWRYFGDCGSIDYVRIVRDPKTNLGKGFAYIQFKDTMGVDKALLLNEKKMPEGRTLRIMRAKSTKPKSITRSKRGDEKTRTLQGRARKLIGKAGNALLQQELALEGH

[5] = target: T5, nrd1 (Schizosaccharomyces pombe) (UniProt Q09702)
T5 sequence: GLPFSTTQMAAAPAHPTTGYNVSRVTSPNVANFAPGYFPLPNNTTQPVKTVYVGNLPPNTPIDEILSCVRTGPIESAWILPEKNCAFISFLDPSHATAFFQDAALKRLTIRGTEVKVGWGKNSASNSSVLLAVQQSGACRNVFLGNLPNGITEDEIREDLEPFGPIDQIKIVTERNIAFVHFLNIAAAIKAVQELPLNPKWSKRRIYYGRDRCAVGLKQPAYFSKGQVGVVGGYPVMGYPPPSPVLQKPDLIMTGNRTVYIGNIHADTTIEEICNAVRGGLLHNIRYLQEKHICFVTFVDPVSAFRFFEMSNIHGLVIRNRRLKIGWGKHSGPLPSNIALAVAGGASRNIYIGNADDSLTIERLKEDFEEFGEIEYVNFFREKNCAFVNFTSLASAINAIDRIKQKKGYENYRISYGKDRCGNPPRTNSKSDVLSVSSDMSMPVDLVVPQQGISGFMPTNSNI

u2af2b (Danio rerio) = u2af2b (Danio rerio) (UniProt A0ACM8Q3Q6)
[6] = target: SNRPB2 (Meleagris gallopavo) (UniProt G1N364)
[7] = target: T6, NEMVEDRAFT_v1g214798 (Nematostella vectensis) (UniProt A7SN30)
T6 sequence: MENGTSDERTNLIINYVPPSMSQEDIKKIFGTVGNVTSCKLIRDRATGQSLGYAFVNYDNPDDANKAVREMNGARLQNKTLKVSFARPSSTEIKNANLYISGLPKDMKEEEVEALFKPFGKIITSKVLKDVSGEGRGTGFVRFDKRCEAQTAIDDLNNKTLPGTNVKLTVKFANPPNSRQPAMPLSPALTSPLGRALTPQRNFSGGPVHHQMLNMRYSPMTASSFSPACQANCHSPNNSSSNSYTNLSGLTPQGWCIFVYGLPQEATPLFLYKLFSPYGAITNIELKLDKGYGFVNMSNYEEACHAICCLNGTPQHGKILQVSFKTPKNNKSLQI

Sequence of SNRPB2 (Meleagris gallopavo) (G1N364 entry or part of it): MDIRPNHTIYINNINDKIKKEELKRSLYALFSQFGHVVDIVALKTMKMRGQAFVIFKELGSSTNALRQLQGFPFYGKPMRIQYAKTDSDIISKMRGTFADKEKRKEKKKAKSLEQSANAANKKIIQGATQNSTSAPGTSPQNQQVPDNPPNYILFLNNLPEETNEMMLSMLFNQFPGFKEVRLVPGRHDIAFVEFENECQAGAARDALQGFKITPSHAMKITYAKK
Sequence of u2af2b (Danio rerio) (A0ACM8Q3Q6 entry or part of it): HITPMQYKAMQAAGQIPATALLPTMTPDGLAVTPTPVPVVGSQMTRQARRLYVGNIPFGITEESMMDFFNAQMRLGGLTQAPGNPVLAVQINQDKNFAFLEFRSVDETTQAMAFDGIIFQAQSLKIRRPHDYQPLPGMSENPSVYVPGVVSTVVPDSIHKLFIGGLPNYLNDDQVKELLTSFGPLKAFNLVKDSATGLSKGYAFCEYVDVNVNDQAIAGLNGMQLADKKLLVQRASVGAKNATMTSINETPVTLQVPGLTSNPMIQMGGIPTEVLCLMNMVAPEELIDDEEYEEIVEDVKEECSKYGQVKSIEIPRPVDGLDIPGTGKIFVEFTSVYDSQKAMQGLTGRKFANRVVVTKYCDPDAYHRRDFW

UUUUUUG [RNAcompete motif RNCMPT00413]
binding signal (z-score (mean of top ten 7-mers)) [1]: 14.2

GAGUGA [RNAcompete motif RNCMPT00431]
binding signal (z-score (mean of top ten 7-mers)) [2]: 12.8

AACAACG [RNAcompete motif RNCMPT00419]
binding signal (z-score (mean of top ten 7-mers)) [3]: 7.35

GAACG [RNAcompete motif RNCMPT00412]
binding signal (z-score (mean of top ten 7-mers)) [4]: 25.9

UUUUUUC [RNAcompete motif RNCMPT00414]
binding signal (z-score (mean of top ten 7-mers)) [5]: 11.9

UUUUUC [RNAcompete motif RNCMPT00418]
binding signal (z-score (mean of top ten 7-mers)) (u2af2b (Danio rerio)): 14.4

UUGCAC [RNAcompete motif RNCMPT00425]
binding signal (z-score (mean of top ten 7-mers)) [6]: 7.95

UUNUUUU [RNAcompete motif RNCMPT00421]
binding signal (z-score (mean of top ten 7-mers)) [7]: 11.9
